Test results reported in the supplement of paper PMC12042874.
± gives the uncertainty stated by the source.

Assay: amyloid nucleation score (Sup35N fusion, yeast selection) (log enrichment); library NNK2; higher = more nucleation; inactive = no reads after selection
Summary of the method: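 Psi-negative yeast expressed Sup35N fused to peptides of 20 random codons. They were induced 24 hours with 100 μM copper sulfate, grown 7 days at 30°C without adenine and uracil, and their plasmid inserts from input and output were Illumina-sequenced. The nucleation score is the DiMSum log enrichment of output over input reads, centred on the mode score of non-aggregating sequences. Sequences with under 100 input reads were excluded.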

Substance | amyloid nucleation score
ISLHILCCRSMF | 8.618 ± 0.079
RNAQDKESKIGTVSDSNHWV | 0.107 ± 0.36
VMYRRSACIEQDSYSNINCR | 0.025 ± 0.29
PSLAKRGVSVCLAKANSRTI | -0.388 ± 1
LGWASYVYGCGRRGGSCRGW | 1.87 ± 0.12
FSSLIKTICLMTAMAEGMSP | -0.258 ± 0.76
SCSYRFSRSDDNCKTRFIAF | -0.582 ± 1.1
NGLQRLITNSKFPTRWTWFG | 0.206 ± 0.33
NYRRGEKNGVDVNLASKQCT | 0.86 ± 0.46
ALLDCMWCTCVCKVSSGVVH | inactive
IIRMNLAGDGVESWGWDRLS | 1.12 ± 0.45
VLVDTSDRWLMARWLGVPKP | 4.79 ± 0.084
TYVYKYLFWSIPCMA | 0.715 ± 0.66
TVSPPLVVFAFRISLRSLRP | 1.12 ± 0.4
KDVCY | 1.31 ± 0.23
LWCPVHRAYGYAIHSVKGAH | 1.04 ± 0.34
RWVRA | 1.18 ± 0.21
SIKPVLVSDFEKAV | 0.661 ± 0.49
HMARYKIMSVLEIFHYMNRL | 3.16 ± 0.16
FTLLVYIFLYMMLIGNSFFM | inactive
NIYLFMLMWDWTSYMALCCV | 3.94 ± 0.081
TSFSG | 0.56 ± 0.38
WRAIALLEARTGSRQ | 1.08 ± 0.14
LVRMIYTYSVRSDSVSFKSF | -0.132 ± 0.38

Substance | amyloid nucleation score
NSVSCANYTLHPIAMDWNGP | inactive
ISFLSNR | 1.58 ± 0.27
NSRLMMCEIPERCM | 0.512 ± 0.28
FSGSALGCEMRYCSRVYWQR | 4.46 ± 0.063
LVGHYSDRDYVEYARRDCAG | 0.252 ± 0.8
YLKDPTFMGVNAFCVVLHFV | 6.01 ± 0.077
LIVTLSDRWWEKGASLVESG | 0.699 ± 0.15
IGVVILNHADSSLVTL | 3.31 ± 0.091
FFLDYRENISAMLPTTR | -0.833 ± 1.1
YSRGMGVSNEMRDYFNKRDI | inactive
RLFLSSNST | -1.49 ± 0.54
TWVVRVGFMLAYLKQR | 2.63 ± 0.093
YFRCTHYTKTGTLVGDISVC | -0.657 ± 0.38
YSLRLDVYYRGWADYPGLWT | 1.73 ± 0.18
CRHYKFV | -0.097 ± 1.1
RNMVVGVGRRP | -0.15 ± 0.45
KQPLYCHDWFHLCGSDSTSF | 2.75 ± 0.16
FMFPILDSVTPIFDIVITGD | inactive
CAFYDYGKALPRGNFRLSKM | -0.208 ± 1
SMYNSHHSELVNWLNDYIWL | 2.47 ± 0.1
SGRPHDCPHWRFFRSIKGLI | -0.676 ± 0.48
QIDYRLIVGRSG | 0.32 ± 0.74
CVVKDSSTVFM | -1.9 ± 1
WVDMAL | 0.168 ± 0.8

Substance | amyloid nucleation score
MCWVANNVTNPVEVEYERSL | -0.821 ± 1.1
IVGVTYFCGSNRIIMMNGVL | 5.956 ± 0.052
TSSTLGLYSHDMPTATHLME | -0.176 ± 0.41
YKCDVICCFGIWVLMFEN | 5.25 ± 0.074
NFNFNCA | 3.87 ± 0.093
HSICSSRNTVIFMSENFRNR | 4.99 ± 0.057
YDSWLDTVVFDFFCLCLDKA | -1.42 ± 0.75
YVCVNWTFTFLFLCLVGRSL | 0.36 ± 0.22
HESVHTTHFMAFYC | 0.124 ± 0.61
HGLLTKLWRPFMHGSV | 0.203 ± 0.31
GDVGAVRVSCVCWLVLVKRG | 0.066 ± 0.76
RWLDSERRTTRHLCSRGYST | 1.24 ± 0.38
YSTYRASVGFARRGMPLPIL | 0.015 ± 0.76
VHDFTRNRKWWDNLWSDRSM | 0.399 ± 0.47
PPVLLISKSSFMQLGCSLST | -0.587 ± 1
MWLLWAKI | inactive
QSSNLMGL | -0.338 ± 0.39
DSSRRM | -1.43 ± 0.78
DSNRMNVNRTPDGVLGGCGT | 0.468 ± 0.38
MLPFNRSVPNAAFFIGMIGS | 2.16 ± 0.076
AFGRTTKKDVCLFGYPKQVE | -0.235 ± 0.46
FQGEGISTAF | -1.32 ± 0.5
